In patent US20180186896A1 one finds MFI ratio data, which are given here for three substances.

In the experiment the target is membrane IgE C2C4 expressed on Ramos cells (in the presence of Ig-alpha and Ig-beta) (human) (UniProt P01854). The experiment is described as follows: flow cytometry, MFI on C2C4-expressing Ramos cells divided by MFI on non-induced cells. A general note: In flow cytometry, cells or beads pass a laser one at a time.
With “positive control mAB anti-IgE Le27 (antibody)”, the MFI ratio is more than 5. The value for “positive control mAB anti-IgE BSW17 (antibody)” was more than 5.

Take “Negative controls (right sample block, starting with no primary AB)”: the MFI ratio worked out at 1.
